Our source for the stoichiometry N values is article PMC12893043.

For the assay, the target named is GFP(+36). The assay can be described thus: time-resolved fluorescence anisotropy; AfFtn-GFP(+36) assembly at pH 7.6 with 500 mM NaCl and with 175 mM NaCl; [GFP] = 1 uM; biexponential fit (instrument response, rotational diffusion of the assembly), no homoFRET; triplicate.

The term stoichiometry N denotes the number of molecules, sites or subunits per partner or assembly.

The substance AfFtn (from UniProt O29424 1-173) returned a stoichiometry N of 12 to 1.
